The values that follow come from patent publication US20240083958A1, “G PROTEIN PEPTIDOMIMETICS” (VRIJE UNIVERSITEIT BRUSSEL, priority 2020, published 2024).

Test [1] has as its target dopamine 1 receptor (D1R) (Homo sapiens, UniProt P21728). The experiment in a line: GPCR-radioligand binding assay (RLA) with dopamine 1 receptor (D1R), [3H]-SCH23390 as radiolabelled antagonist, A-77636 (agonist), in presence and absence of the peptidomimetic. The conditions noted are these: Table 19; peptidomimetic at 10 μM; ratio IC50 D1R alone / IC50 D1R + peptidomimetic. The protocol:
For the radioligand assays on D1R a similar buffer, as for β2AR, was used for the ligands, membrane extracts and peptides (+1% DMSO). The competition assay was performed with [^3H]-SCH23390 as radiolabelled antagonist, at a concentration of 2 nM. A ten-fold dilution series of the agonist, A-77636, was prepared to obtain a dose response curve, starting from 100 μM for the receptor alone and 10 μM in the presence of the peptidomimetics. After incubation, the samples were harvested into filter plates, pre-soaked with 0.5% polyethylenimine (PEI), and washed with ice cold washing buffer using the 96-well harvester. After drying in the oven during 1 h and the addition of scintillation liquid, the plates were placed in the MICROBETA® scintillation counter and incubated for 30 min in the dark before reading.
(§1) After the Microbeta scintillation counter, the experimental data was further analyzed using Graphpad Prism 6.0. After normalization of the raw data, a nonlinear regression was used to fit the data in a one-site binding model, with the total binding set as 100% and the non-specific binding between 0 and 5%. The IC50 values, obtained from the competition curves, were used to determine the shift for each peptide, which is the ratio of IC50 of the agonist test compound on the basal conformation (e.g. IC50 β2AR with no peptidomimetic) versus the active conformation (e.g. IC50 β2AR+peptidomimetic) of the receptor. For certain peptide analogues, a biphasic binding curve was observed and therefore fitted by a two-site model (nonlinear regression), resulting in two IC50 values (IC50Hi and IC50Lo) and a FractionHi, the fraction of receptors in the active state.
Peptidomimetics were screened using GPCR-radioligand binding assay (RLA) with dopamine 1 receptor (D1R) binding, using [^3H]-SCH23390 as radiolabelled antagonist, and increasing concentrations of A-77636 (agonist). The half maximal inhibitory concentration (IC50) represents the affinity of the agonist for the receptor. The selectivity is quantified by the shift. “[ ]” denotes cyclic peptides.

In test [2] the target is T1, human β2AR (human, UniProt P07550 2-365). The experiment in a line: cell-based or functional assay.
For test [3], the target named is T2, human β2AR (Homo sapiens, UniProt P07550, N187E).
T2 construct: made in house; host or cells: Sf9 insect cells (Bac-to-Bac baculovirus); membrane extracts
As to the kind of experiment: Radioligand binding assay (RLA) with human β2AR, 3H-dihydroalprenolol (DHA) as radioligand, isoproterenol (agonist) as cold competitor, in presence and absence of the peptidomimetic. The protocol: β2AR365N constructs were expressed in Sf9 insect cells, using the Bac-to-Bac® Baculovirus Expression System. The membrane extracts were prepared from cells that expressed β2AR. Subsequently, the cell pellet was resuspended in a buffer (1 ml buffer/2×1E7 cells) containing 75 mM Tris pH 7.4, 12.5 mM MgCl2, 1 mM EDTA, Leupeptin and PMSF as protease inhibitors. Afterwards the cells were vortexed and homogenized in ice using a small volume Ultraturrax (6×10 sec). The cells were then centrifuged for 15 min at 16000 rcf, in a pre-cooled centrifuge (4° C.) and resuspended in the previous buffer containing 10% sucrose. Finally, the membranes were again homogenized in ice with the small volume Ultraturrax (3×10 sec). The protein concentration in the membrane fragments was determined using a Pierce BCA Protein Assay Kit and the protein concentration was extrapolated from the Bovine Serum Albumine standard curve.
To perform the radioligand competition binding assays, 96-well plates were used. For the assays on β2AR, the membrane extracts as well as the peptides were prepared in a binding buffer (75 mM Tris pH 7.4, 12.5 mM MgCl2, 1 mM EDTA, 0.2% BSA). The ligand (isoproterenol) and radioligand ([^3H]-dihydroalprenolol) were dissolved in ligand buffer (75 mM Tris pH 7.4, 12.5 mM MgCl2, 1 mM EDTA, 0.2% BSA and 0.1% ascorbic acid), at 1 mM and 2 nM, respectively. A ten-fold dilution series of the ligand was prepared to obtain a dose response curve. For each reaction 100 μl membrane extract, 50 μl ligand, 50 μl peptide or binding buffer containing 1% DMSO and 50 μl of radioligand was added to the V-bottom storage plate, with a total volume of 250 μl per well. Afterwards, the plates were incubated at room temperature for 2 h on a plate shaker (150 rpm). The samples were harvested into filter plates and washed with ice cold washing buffer (75 mM Tris pH 7,4) using the 96-well harvester. The plates were dried for 1 h at 50° C. and then sealed to allow the addition of 30 μl scintillation liquid to each well. Finally, the top of each plate was sealed and the plates were placed in a Wallac MICROBETA® Trilux scintillation counter and incubated for 30 min in the dark.
as §1
Synthesised peptidomimetics were evaluated using a radioligand binding assay (RLA) with a human β2AR, using ^3H-dihydroalprenolol (DHA) as the radioligand and increasing concentrations of isoproterenol (agonist) as cold competitor. In particular, the pharmacological stabilization of the receptor in the active conformation was evaluated by performing the radioligand displacement assay (RLA) in the presence and absence of the peptidomimetics. This validated assay quantifies the pharmacological stabilization of the receptor in the active conformation by comparing the affinities of an agonist for the basal versus the active GPCR conformer (Pardon et al. (2018) Angewandte Chemie International Edition 57, 5292-5295). During the assay, the binding affinity of an orthosteric agonist for the receptor, in particular isoproterenol for human β2AR, in presence and absence of the allosteric peptidomimetic was determined. […]

The target of test [4] is T1, human β2AR. As to the kind of experiment: cell-based or functional assay. This is another data set of the same source.
Test [5] addresses T1, human β2AR. As to the kind of experiment: cell-based or functional assay. The source holds these as a separate data set.
For test [6], the target named is dopamine 1 receptor (D1R) (UniProt P21728 1-446, limits assumed). As to the kind of experiment: cell-based or functional assay.
Sequence of dopamine 1 receptor (D1R) (UniProt P21728 1-446, limits assumed) (P21728 whole entry): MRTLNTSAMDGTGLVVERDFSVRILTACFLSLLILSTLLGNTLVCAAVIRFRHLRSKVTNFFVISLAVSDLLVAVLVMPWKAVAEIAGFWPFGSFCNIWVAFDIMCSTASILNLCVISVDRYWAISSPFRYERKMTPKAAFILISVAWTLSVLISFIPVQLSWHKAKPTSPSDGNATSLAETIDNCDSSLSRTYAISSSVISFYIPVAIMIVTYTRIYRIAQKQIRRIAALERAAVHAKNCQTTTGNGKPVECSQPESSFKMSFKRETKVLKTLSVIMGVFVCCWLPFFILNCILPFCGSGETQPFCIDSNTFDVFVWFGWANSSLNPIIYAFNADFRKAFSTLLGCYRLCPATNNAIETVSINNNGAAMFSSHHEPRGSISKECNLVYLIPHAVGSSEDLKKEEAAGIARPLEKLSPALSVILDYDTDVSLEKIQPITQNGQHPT
Test [7] concerns the target T1, human β2AR. The experiment in a line: cell-based or functional assay. This is another data set of the same source.
The target in test [8] is T1, human β2AR. The experiment in a line: cell-based or functional assay. This is another data set of the same source.
For test [9], the target named is T1, human β2AR. As to the kind of experiment: cell-based or functional assay. This is another data set of the same source.
Test [10] deals with T1, human β2AR. As to the kind of experiment: cell-based or functional assay. The source holds these as a separate data set.
Test [11] deals with T1, human β2AR. As to the kind of experiment: cell-based or functional assay. The source holds these as a separate data set.
Test [12] addresses T1, human β2AR. As to the kind of experiment: cell-based or functional assay. This is another data set of the same source.

Read-outs that look alike come from different tables or passages of the source. Bridge positions count the residues as written; N and C are the ends. Square brackets hold non-standard residues; d marks the D form. Primed or numbered codes have the meaning given here. Azk = residue with azidated side chain, clicked to Pra; Pra′ = residue with alkynyl side chain, clicked to Azk; Lys(N3) = [N-]=[N+]=NCCCC[C@H](N)C(=O)O; Cha = N[C@@H](CC1CCCCC1)C(=O)O; Pra = C#CC[C@H](N)C(=O)O

Sequence of dopamine 1 receptor (D1R) (Homo sapiens, UniProt P21728) (P21728 whole entry): as above

Consider “Ac-KKKFN[PraCRDAzk]IQRMHLRQYELL-OH (Ac-KKKFN[Pra]CRD[Lys(N3)]IQRMHLRQYELL-OH; triazole 6-10) [compound 42]”, for which, in test [1], the Shift is recorded as 32.

In the case of Nb80 (VHH), in test [2], the IC50 (nM) of isoproterenol, [3H]-DHA RLA, Nb80 present turned out to be 9.7 nM and the Shift turned out to be 146.

Regarding “Ac-FNDCRDIIQRMHLRQYEChaL-OH (FNDCRDIIQRMHLRQYEXL; HELM PEPTIDE1{[ac].F.N.D.C.R.D.I.I.Q.R.M.H.L.R.Q.Y.E.[Cha].L}$$$$V2.0; SMILES CC[C@H](C)[C@H](NC(=O)[C@H](CC(=O)O)NC(=O)[C@H](CCCNC(=N)N)NC(=O)[C@H](CS)NC(=O)[C@H](CC(=O)O)NC(=O)[C@H](CC(N)=O)NC(=O)[C@H](Cc1ccccc1)NC(C)=O)C(=O)N[C@H](C(=O)N[C@@H](CCC(N)=O)C(=O)N[C@@H](CCCNC(=N)N)C(=O)N[C@@H](CCSC)C(=O)N[C@@H](Cc1c[nH]cn1)C(=O)N[C@@H](CC(C)C)C(=O)N[C@@H](CCCNC(=N)N)C(=O)N[C@@H](CCC(N)=O)C(=O)N[C@@H](Cc1ccc(O)cc1)C(=O)N[C@@H](CCC(=O)O)C(=O)N[C@@H](CC1CCCCC1)C(=O)N[C@@H](CC(C)C)C(=O)O)[C@@H](C)CC) [compound 63]”, the Shift in test [1] is given as 24.

For the molecule “Ac-KKKFN[PraCRDAzk]IQRMHLRQYEChaL-OH (Ac-KKKFN[Pra′]CRD[Azk]IQRMHLRQYE[Cha]L-OH; triazole 6-10) [compound 51]”, the Shift is reported as 52 in test [1]; 175 in test [3] (Table 10, peptidomimetic at 10 μM, ratio IC50 β2AR alone / + peptidomimetic); 170 in [3] (Table 10, peptidomimetic at 50 μM, ratio IC50 β2AR alone / + peptidomimetic); 345 in [3] (Table 10, peptidomimetic at 100 μM, ratio IC50 β2AR alone / + peptidomimetic); 21 in test [3] (Table 10, ratio IC50 β2AR alone / + peptidomimetic). The “Fraction HI (%)” value in test [3] (Table 10, peptidomimetic at 1 μM (printed 511 μM), fraction of receptors in the active state) is recorded as 54%; in test [3] (Table 10, peptidomimetic at 10 μM, fraction of receptors in the active state), 76%; in [3] (Table 10, peptidomimetic at 50 μM, fraction of receptors in the active state), 79%; in test [3] (Table 10, peptidomimetic at 100 μM, fraction of receptors in the active (high affinity) state, two-site model), 77%.

Take “FNDCRDIIQRMHLRQYELL [compound 2, Ac-FNDCRDIIQRMHLRQYELL-OH]”: the Shift in test [1] is 2; in test [3] (Table 1, ratio IC50 β2AR alone / IC50 β2AR + peptidomimetic), 6.

B1: compound 16 (peptide)
peptide: Ac-RDIIQRMHLRQYELL-OH
Regarding B1, the “IC50 (nM) of isoproterenol, [3H]-DHA RLA, peptidomimetic present” value (“IC50 (nM) … peptidomimetic present” below) in test [4] stood at 614 nM.

B2: compound 42 (peptide)
peptide: Ac-KKKFN[Pra′]CRD[Azk]IQRMHLRQYELL-OH
modifications: triazole 6-10
For the molecule B2, in test [5], the “IC50 (nM) … peptidomimetic present” value was 27.4 nM and the Shift worked out at 42. Further, in [6], the “IC50 (nM) of A-77636, [3H]-SCH23390 RLA, compound 42 at 10 µM” value is 0.41 nM. Further, the “Shift (averaged)” value in test [7] was found to be 49.

B3: compound 63 (peptide)
peptide: FNDCRDIIQRMHLRQYEXL
HELM: PEPTIDE1{[ac].F.N.D.C.R.D.I.I.Q.R.M.H.L.R.Q.Y.E.[Cha].L}$$$$V2.0
SMILES: CC[C@H](C)[C@H](NC(=O)[C@H](CC(=O)O)NC(=O)[C@H](CCCNC(=N)N)NC(=O)[C@H](CS)NC(=O)[C@H](CC(=O)O)NC(=O)[C@H](CC(N)=O)NC(=O)[C@H](Cc1ccccc1)NC(C)=O)C(=O)N[C@H](C(=O)N[C@@H](CCC(N)=O)C(=O)N[C@@H](CCCNC(=N)N)C(=O)N[C@@H](CCSC)C(=O)N[C@@H](Cc1c[nH]cn1)C(=O)N[C@@H](CC(C)C)C(=O)N[C@@H](CCCNC(=N)N)C(=O)N[C@@H](CCC(N)=O)C(=O)N[C@@H](Cc1ccc(O)cc1)C(=O)N[C@@H](CCC(=O)O)C(=O)N[C@@H](CC1CCCCC1)C(=O)N[C@@H](CC(C)C)C(=O)O)[C@@H](C)CC
As to B3, in [8], the “Fraction HI (%)” value came to 81%; the “IC50 (nM) … peptidomimetic present” value came to 7.3 nM; the Shift came out at 217. In [9], the “IC50 (nM) … peptidomimetic present” value turned out to be 6.88 nM and the Shift was determined as 118. Besides, the “IC50 (nM) of A-77636, [3H]-SCH23390 RLA, compound 63 at 10 µM” value in test [6] amounted to 0.55 nM. For the same molecule, in [10], the “IC50 (nM) … peptidomimetic present” value is 3.96 nM and the Shift came out at 198. The “Shift (averaged)” value in test [7] turned out to be 203.

B4: compound 51 (peptide)
peptide: Ac-KKKFN[Pra′]CRD[Azk]IQRMHLRQYE[Cha]L-OH
modifications: triazole 6-10
For the molecule B4, in test [11], the “Fraction HI (%)” value turned out to be 83%; the “IC50 (nM) … peptidomimetic present” value came to 2.8 nM; the Shift amounted to 580. For the same molecule, the “IC50 (nM) of A-77636, [3H]-SCH23390 RLA, compound 51 at 10 µM” value in test [6] was 0.25 nM. The “Shift (averaged)” value in test [7] amounted to 400. Also, in [12], the “IC50 (nM) of isoproterenol, [3H]-DHA RLA, compound 51 at 1 µM” value came out at 56.4 nM; the “IC50 (nM) of isoproterenol, [3H]-DHA RLA, compound 51 at 10 µM” value stood at 6.7 nM; the “IC50 (nM) of isoproterenol, [3H]-DHA RLA, compound 51 at 50 µM” value turned out to be 6.9 nM; the “IC50 (nM) of isoproterenol, [3H]-DHA RLA, compound 51 at 100 µM” value is 3.4 nM.
